From patent US20260069689A1 (Regeneron, published 2026)
Substitutions are numbered along the chain they refer to.

B1: mAb13458 (antibody)
heavy: not shown
light: AIQMTQSPSSLSASVGDRVTITCRASQDIRNDLGWYQQKPGKAPKLLIYSASSLQTGVPSRFSGSGSGTDFTLTISSLHPEDFATYYCLQDYWYTWTFGQGTKVEIKRTVAAPSVFIFPPSDEQLKSGTASVVCLLNNFYPREAKVQWKVDNALQSGNSQESVTEQDSKDSTYSLSSTLTLSKADYEKHKVYACEVTHQGLSSPVTKSFNRGEC
B2: mAb15170 (antibody, V domains shown)
VH: EVQLVESGGGLVQPGGSLRLSCAATGITVSSNYMSWVRQAPGKGLEWVSLIYSGGSTFYADSVKGRFTISRHNSKNTLYLQMSSLRAEDTAVYYCARDLVDFGMDVWGQGTTVTVSS
VL: DIQLTQSPSSLSASVGDRVTITCRASQGISNYLAWYQQKPGKAPKLLIYAASTLQSGVPSRFSGSGSGTDFTLTISSLQPEDFGTYYCQQLNSDSPTFGQGTKVEIKR
B3: mAb15163 (antibody, V domains shown)
VH: EVQLVETGGGLIQPGESLRLSCAASGFIVSTNYMNWVRQAPGKGLEWVSVIYRGGSTYYADSVKGRFTISRDNSKNTLFLQMNSLRAEDTAVYYCARGHEDFDYDTPASGAFDIWGQGTMVTVSS
VL: QSALTQPPSASGSPGQSVTISCTGTSSDVGGHNYVSWYQQHPGKAPKVMIYEVSKRPSGVPDRFSGSKSGNTASLTVSGLQAEDEADYYCSSYAGSNKFVFGTGTKVTVLG
B4: mAb14235 (antibody)
heavy: not shown
light: QSALTQPASVSGSPGQSITISCTATSSDVGTYNYVSWFQHHPGKAPKLMIYEVTNRPSGVSNRFSGSKSGNTASLTISGLQAEDEADYYCSSYTTTSIVFGGGTKLTVLGQPKAAPSVTLFPPSSEELQANKATLVCLISDFYPGAVTVAWKADSSPVKAGVETTTPSKQSNNKYAASSYLSLTPEQWKSHRSYSCQVTHEGSTVEKTVAPTECS
B5: mAb14230 (antibody)
heavy: not shown
light: EIVLTQSPGTLSLSPGERATLSCRASQTVISTYLAWYQQKPGQSPRLLIYGASSRATGIPDRFSGSGSGTDFTLTISRLEPEDFAVYYCQQYGSSPQLTFGGGTKVEIKRTVAAPSVFIFPPSDEQLKSGTASVVCLLNNFYPREAKVQWKVDNALQSGNSQESVTEQDSKDSTYSLSSTLTLSKADYEKHKVYACEVTHQGLSSPVTKSFNRGEC
B6: mAb15162 (antibody, V domains shown)
VH: EVQLVETGGGLIQPGGSLRLSCAASEFIVSRNYMSWVRQAPGKGLEWVSLIYSGGSTYYADSVKGRFTISRDNSKNILYLQMNSLRAEDTAVYYCARDRGGISDYWGQGTLVTVSS
VL: DIQMTQSPSSLSASVGDRVTITCQASQDINKYLNWFQQKPGKAPKLLIYDASNLETGVPSRFSGSGSGTDFTFTISSLQPEDIATYYCQQYDNLPRTFGQGTKLEIKR
B7: mAb14234 (antibody)
heavy: not shown
light: QSVLTQPPSVSGAPGQRVTISCTGSSSNIGIGYDVHWYQQLPGTVPKLLIYGNTNRPSGVPDRFSGSKSGTSASLAITGLQAEDEADYYCQSYDSSLSSYVFGTGTKVTVLGQPKAAPSVTLFPPSSEELQANKATLVCLISDFYPGAVTVAWKADSSPVKAGVETTTPSKQSNNKYAASSYLSLTPEQWKSHRSYSCQVTHEGSTVEKTVAPTECS
B8: mAb15151 (antibody, V domains shown)
VH: QVQLVESGGGVVQPGRSLRLSCAASGFVFNSYGMHWVRQAPGKGLEWVAVLWYEGSKNYYADSVKGRFTISRDNSKNTLYLQMNSLRAEDTAVYYCARHGSGSFFGYYLDYWGQGTLVTVSS
VL: DIQMTQSPSSLSASVGDRVTITCRASHNINDFLNWYQQKPGKAPRLLIYAASSLQSGVPSRFSGSGSGTDFTLTISSLQPEDFATYYCQESYTTPPTFGQGTKLEIKR
B9: mAb15150 (antibody, V domains shown)
VH: EVQLVETGGGLIQPGGSLRLSCAAPGFIVSSNYMSWVRQAPGKGLEWVSLLYPGGSTYYADSVKGRFTISRDNSKNTLYLQMNSLRADDTAVYYCARVLPIVEDHFDYWGQGTLVTVSS
VL: DIQLTQSPSFLSASVGDRVTITCRASQGMSSYLAWYQKKPGKAPKLLIYGATILQSGVPSRFSGSGSGTEFTLTISSLQPEDFATYYCQQLNSDPLYMYTFGQGTKLEIKR
B10: mAb15164 (antibody, V domains shown)
VH: EVQLVESGGGLVQPGGSLRLSCAASGFAVSSNYMTWVRQAPGKGLEWVATIYSGDSTYYADSVKGRFTISRHNSKNTLSLQMNSLRADDTAIYYCARLSGVLSGTYNGAFDIWGQGTMVTVSS
VL: QSALTQPASVSGSPGQSITISCTGTSSDFGNYNIVSWYQQHPGQAPKVMIYEGNKRPSGVSNRFSGSKSGHTASLTISGLQAEDEADYYCSSYAGSSTWVFGGGTKLTVLG
B11: mAb15165 (antibody, V domains shown)
VH: EVQLVESGGGLVQPGGSLRLSCAASGFTVSSNYMSWVRQAPGKGLEWVSAIYSGDSTYYADSVKGRFTISKDNSKNTLYLQMNSLRGEDTAVYYCARLGGALQAYDGAFDYWGQGTLATVSS
VL: B10 VL with N31S, I34L, Q44K, V48L, N62I, H71N
B12: mAb15166 (antibody, V domains shown)
VH: EVQLVESGGGLVQPGGSLRLSCAASGFTVTSNYMSWVRQAPGKGLEWVSAIYSGESTYYADSVKGRFTISRDSSKNTLYLQMNSLRVEDTAVYYCASIHDYSNYVGGFDPWGQGTLVTVSS
VL: B10 VL with T25P, N31S, I34L, Q44K, V48L, N54T, H71N
B13: mAb14247 (antibody)
heavy: not shown
light: QSALTQPASVSGSPGQSITISCTATSSDVGNYNYVSWYQQHPGKAPKLMIYEVSNRPSGVSNRFSGSKSGNTASLTISGLQAEDEADYYCSSYTSSSTPLVFGGGTKLTVLGQPKAAPSVTLFPPSSEELQANKATLVCLISDFYPGAVTVAWKADSSPVKAGVETTTPSKQSNNKYAASSYLSLTPEQWKSHRSYSCQVTHEGSTVEKTVAPTECS

Legend:
[1] = biological target: SARS-COV-2 RBD-MMH (SARS-CoV-2); experiment: SPR 37C, run with dissociation at pH 7.4
[2] = biological target: SARS-COV-2 RBD-MMH (SARS-CoV-2); experiment: SPR 37C, run with dissociation at pH 5.0
[3] = biological target: SARS-COV-2 RBD-MMH (SARS-CoV-2); experiment: SPR 37C
[4] = biological target: human FcγR3a 176Val allotype receptor (human, UniProt P08637 17-254); experiment: cell-based or functional assay

| Binder | RBD.mmh Bound at pH 7.4 (RU) [1] [RU] | koff [1] [s⁻¹] | RBD.mmh Bound at pH 7.4 (RU) [2] [RU] | koff [2] [s⁻¹] | t½ [2] [min] | t½ Ratio of pH 7.4 to pH 5.0 [3] | EC50 (M), Jurkat/CD20/spike [4] [M] | Fold induction, Jurkat CD20 [4] [fold] | Fold induction, Jurkat/CD20/spike [4] [fold] |
| --- | --- | --- | --- | --- | --- | --- | --- | --- | --- |
| B1 | 96.5 | 0.00161 | 90.9 | 0.00401 | 2.9 | 2.5 | 1.43e-10 | 1.2 | 10.2 |
| B2 | 120 | 0.000107 | 141 | 6.62e-05 | 174 | 0.6 |  |  |  |
| B3 | 81.9 | 0.000494 | 83.2 | 0.00377 | 3.1 | 7.6 |  |  |  |
| B4 | 71.2 | 0.00148 | 80.8 | 0.00119 | 9.7 | 0.8 | 1.43e-10 | 1 | 10.8 |
| B5 | 67.6 | 0.00771 | 60.3 | 0.00924 | 1.3 | 1.2 | 1.79e-10 | 1.1 | 9.8 |
| B6 | 116 | 0.003 | 131 | 0.0054 | 2.1 | 1.8 |  |  |  |
| B7 | 37.9 | 0.00221 | 40.4 | 0.00166 | 7 | 0.7 | 2.69e-10 | 1.1 | 12.6 |
| B8 | 219 | 0.0068 | 231 | 0.00439 | 2.6 | 0.6 |  |  |  |
| B9 | 87.8 | 0.000112 | 92.6 | 1e-05 | 1160 | 0.1 |  |  |  |
| B10 | 145 | 0.00226 | 159 | 0.002 | 5.8 | 0.9 |  |  |  |
| B11 | 110 | 0.00164 | 127 | 0.000973 | 11.9 | 0.6 |  |  |  |
| B12 | 65.2 | 0.03 | 60 | 0.035 | 0.3 | 1.2 |  |  |  |
| B13 | 40.8 | 0.00158 | 51.9 | 0.00191 | 6.1 | 1.2 | 1.79e-10 | 1 | 11.3 |
